In patent US20140348865A1, “[…] ON AN HIV-1 V1V2 SITE-OF-VULNERABILITY” (The United States of America, as represented by the …, priority 2011, published 2014):

Key:
epitope-scaffold 1VH8_C [1] = assay: ELISA, antibody dilution series on the scaffold after large-scale expression
epitope-scaffold 1VH8_C [2] = assay: ELISA, PG9 dilution series
epitope-scaffold 2ZJR_A [3] = assay: ELISA, PG9 dilution series
[4] = molecular target: gp120 of HIV-1 strain 16055, full length (HIV-1); assay: ELISA, PG9 dilution series
1JO8-ZM109 V1V2 scaffold = assay: ELISA, PG9 dilution series
epitope-scaffold 2ZJR_B = assay: ELISA, PG9 dilution series
[5] = molecular target: linked dimers of the gp120 V1/V2 domain; assay: gel filtration shift
[6] = molecular target: Env of HIV-1 strain RHPA (pseudovirus) (HIV-1); assay: cell-based or functional assay
[7] = molecular target: Env of HIV-1 strain 6405 (pseudovirus) (HIV-1); assay: cell-based or functional assay
[8] = molecular target: Env of HIV-1 strain 6471 (pseudovirus) (HIV-1); assay: cell-based or functional assay
[9] = molecular target: Env of HIV-1 strain ZM135 (pseudovirus) (HIV-1); assay: cell-based or functional assay
[10] = molecular target: Env of HIV-1 strain QH0515 (pseudovirus) (HIV-1); assay: cell-based or functional assay
[11] = molecular target: Env of HIV-1 strain T251-18 (pseudovirus) (HIV-1); assay: cell-based or functional assay
[12] = molecular target: Env of HIV-1 strain CNE56 (pseudovirus) (HIV-1); assay: cell-based or functional assay
[13] = molecular target: Env of HIV-1 strain 3873 (pseudovirus) (HIV-1); assay: cell-based or functional assay
[14] = molecular target: Env of HIV-1 strain QH209 (pseudovirus) (HIV-1); assay: cell-based or functional assay
[15] = molecular target: Env of HIV-1 strain X2088 (pseudovirus) (HIV-1); assay: cell-based or functional assay
[16] = molecular target: Env of HIV-1 strain BG 1168 (pseudovirus) (HIV-1); assay: cell-based or functional assay
[17] = molecular target: Env of HIV-1 strain CNE30 (pseudovirus) (HIV-1); assay: cell-based or functional assay
[18] = molecular target: Env of HIV-1 strain CNE4 (pseudovirus) (HIV-1); assay: cell-based or functional assay
[19] = molecular target: Env of HIV-1 strain 0439 (pseudovirus) (HIV-1); assay: cell-based or functional assay
[20] = molecular target: Env of HIV-1 strain 6322 (pseudovirus) (HIV-1); assay: cell-based or functional assay
[21] = molecular target: Env of HIV-1 strain 398 (pseudovirus) (HIV-1); assay: cell-based or functional assay
[22] = molecular target: Env of HIV-1 strain A03349M1 (pseudovirus) (HIV-1); assay: cell-based or functional assay
[23] = molecular target: Env of HIV-1 strain 7165.18 (pseudovirus) (HIV-1); assay: cell-based or functional assay
[24] = molecular target: Env of HIV-1 strain JRFL (pseudovirus) (HIV-1); assay: cell-based or functional assay
[25] = molecular target: Env of HIV-1 strain 6631 (pseudovirus) (HIV-1); assay: cell-based or functional assay
epitope-scaffold 2ZJR_A [26] = assay: ELISA, antibody dilution series on the scaffold
1X3E = assay: ELISA, antibody dilution series on the scaffold
[27] = molecular target: linked dimers of the gp120 V1/V2 domain; assay: SPR

Substance: monoclonal antibody PG9
- EC50 (read off the curve) (epitope-scaffold 1VH8_C [1]): 0.8 µg/mL
- EC50 (read off the curve) (epitope-scaffold 1VH8_C [2]): 0.03 µg/mL
- EC50 (read off the curve) (epitope-scaffold 2ZJR_A [3]): 0.01 µg/mL
- EC50 (read off the curve) [4]: 0.004 µg/mL
- EC50 (read off the curve) (1JO8-ZM109 V1V2 scaffold): 0.03 µg/mL
- EC50 (read off the curve) (epitope-scaffold 2ZJR_B): 0.01 µg/mL
- percent active for PG9 binding [5]: 100%
- neutralization IC50, Env-pseudovirus, TZM-bl cells [6]: > 50 µg/mL
- neutralization IC50, Env-pseudovirus, TZM-bl cells [7]: > 50 µg/mL
- neutralization IC50, Env-pseudovirus, TZM-bl cells [8]: > 50 µg/mL
- neutralization IC50, Env-pseudovirus, TZM-bl cells [9]: > 50 µg/mL
- neutralization IC50, Env-pseudovirus, TZM-bl cells [10]: > 50 µg/mL
- neutralization IC50, Env-pseudovirus, TZM-bl cells [11]: > 50 µg/mL
- neutralization IC50, Env-pseudovirus, TZM-bl cells [12]: > 50 µg/mL
- neutralization IC50, Env-pseudovirus, TZM-bl cells [13]: > 50 µg/mL
- neutralization IC50, Env-pseudovirus, TZM-bl cells [14]: > 50 µg/mL
- neutralization IC50, Env-pseudovirus, TZM-bl cells [15]: > 50 µg/mL
- neutralization IC50, Env-pseudovirus, TZM-bl cells [16]: > 50 µg/mL
- neutralization IC50, Env-pseudovirus, TZM-bl cells [17]: > 50 µg/mL
- neutralization IC50, Env-pseudovirus, TZM-bl cells [18]: > 50 µg/mL
- neutralization IC50, Env-pseudovirus, TZM-bl cells [19]: > 50 µg/mL
- neutralization IC50, Env-pseudovirus, TZM-bl cells [20]: > 50 µg/mL
- neutralization IC50, Env-pseudovirus, TZM-bl cells [21]: > 50 µg/mL
- neutralization IC50, Env-pseudovirus, TZM-bl cells [22]: > 50 µg/mL
- neutralization IC50, Env-pseudovirus, TZM-bl cells [23]: > 50 µg/mL
- neutralization IC50, Env-pseudovirus, TZM-bl cells [24]: > 50 µg/mL
- neutralization IC50, Env-pseudovirus, TZM-bl cells [25]: > 50 µg/mL
- EC50 (read off the curve) (epitope-scaffold 2ZJR_A [26]): 0.3 µg/mL
- EC50 (read off the curve) (1X3E): 1 µg/mL
- Kd [27]: < 1 µM
